Measurements published in paper PMC3104014 (The Biochemical journal, 2010).

Target: the molecule itself
Test: SEC-MALS

B1: rat RNF4 RING domain (residues 124-194) (domain or fragment, UniProt O88846 124-194, looked up)
chain: GTTGLRPSGTVSCPICMDGYSEIVQNGRLIVSTECGHVFCSQCLRDSLKNANTCPTCRKKINHKRYHPIYI
  stoichiometry N: 2
